Measured values reported in article PMC4880191, “SUMO-Modification of the La Protein Facilitates Binding to mRNA In Vitro and in Cells”.

T1: La (LARP3), native (human, UniProt P05455 1-408)
T1 sequence: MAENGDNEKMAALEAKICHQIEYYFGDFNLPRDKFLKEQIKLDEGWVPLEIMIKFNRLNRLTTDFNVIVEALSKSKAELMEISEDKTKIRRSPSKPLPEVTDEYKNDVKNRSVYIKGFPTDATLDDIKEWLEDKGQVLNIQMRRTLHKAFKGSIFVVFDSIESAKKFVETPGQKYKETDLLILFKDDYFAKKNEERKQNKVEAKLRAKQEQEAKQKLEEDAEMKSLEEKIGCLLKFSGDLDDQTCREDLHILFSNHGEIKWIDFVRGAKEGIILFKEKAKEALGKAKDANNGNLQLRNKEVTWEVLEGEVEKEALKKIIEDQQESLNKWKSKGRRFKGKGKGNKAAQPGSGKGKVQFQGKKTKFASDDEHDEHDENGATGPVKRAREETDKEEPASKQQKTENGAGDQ


Biological target: T1, La (LARP3), native
Test: EMSA; most RNA (22 nM) bound at 200-400 nM La; titration 6-700 nM; L37/L22 EMSA: 1x binding buffer (from 2x: 3 mM MgCl2, 300 mM NaCl, 1 mM EDTA, 0.1% Nonidet P-40), i.e. 1.5 mM MgCl2, 150 mM NaCl, 0.5 mM EDTA, 0.05% NP-40; pH not stated; 22 nM RNA, 40 ul, 10 min at room temperature; native 10% PAGE in TBE. CCND1 EMSA as in ref 42
Details: protein: recombinant; tags: His6; label: 3'-Cy3; weak secondary structure

| Binder | binding result |
| --- | --- |
| CUCCUCUGCCGCCAUGGCUCCUGUGAAAAAGCUUGUG (ssRNA) [L22 TOP RNA] | binds |
| UUCCGGUCUCUUUGGCCUCGCCGGUAGAAGCAAGAUG (ssRNA) [L37 TOP RNA] | binds |
